# T1: fluorogenic peptide substrate decanoyl-LTPTAY(NO2)A-ASK(abz)DD
# T1 chain: LTPTAYAASKDD
# T2: fluorogenic peptide substrate decanoyl-LSSPAY(NO2)A-ADK(abz)PD
# T2 chain: LSSPAYAADKPD
# Tests used:
# [1] = target: T1, fluorogenic peptide substrate …
# [2] = target: T2, fluorogenic peptide substrate …
protein,measurement,setting,value
Full length His-tagged S. aureus SPase (protein) MKKELLEWIISIAVAFVILFIVGKFIVTSYTIKGESMDPTLKDGERVAVNIIGYKTGGLEKGNVVVFHANKNDDYVKRVIGVPGDKVEYKNDTLYVNGKKQDEPYLNYNLKHKQGDYITGTFQVKDLPNANPKSNVIPKGKYLVLGDNREVSKDSRAFGLIDEDQIVGKVSFRFWPFSEFKHNFNPENTKN,second order rate constant (Kcat/Km) of substrate cleavage,[1],10^5 M^-1 s^-1
same,second order rate constant (Kcat/Km) of substrate cleavage,[2],10^5 M^-1 s^-1

# — patent US20140249073A1
